We go through four substances from US20190338035A1.

The target in assay [1] is mutant histone K27M-H3.1 26-35 peptide/HLA-A*02:01 complex on T2 cells (human). Put plainly: flow cytometry, BB7.2 staining of T2 cells. Background: Flow cytometry measures light scatter and fluorescence of single cells or particles in a stream.
In assay [2] the target is mutant histone K27M-H3.3 26-35 peptide/HLA-A*02:01 complex on T2 cells (human). Put plainly: flow cytometry, BB7.2 staining of T2 cells.
Assay [3] concerns the target WT H3.1 26-35 peptide/HLA-A*02:01 complex on T2 cells (human). Put plainly: flow cytometry, BB7.2 staining of T2 cells.
For assay [4], the target named is HLA-A*02:01 on T2 cells without peptide loading (human). Put plainly: flow cytometry, BB7.2 staining of T2 cells.
Assay [5] concerns the target control peptide mixture P20/HLA-A*02:01 complexes on T2 cells (human). Put plainly: flow cytometry, BB7.2 staining of T2 cells.
The target in assay [6] is WT H3.3 26-35 peptide/HLA-A*02:01 complex on T2 cells (human). Put plainly: flow cytometry, BB7.2 staining of T2 cells.
The target of assay [7] is mutant histone K27M-H3.1 26-35 peptide/HLA-A*02:01 complex on T2 cells (human). Put plainly: flow cytometry on T2 cells, secondary antibody only, no phage (background control).
The target of assay [8] is mutant histone K27M-H3.3 26-35 peptide/HLA-A*02:01 complex on T2 cells (human). The description is as above.
For assay [9], the target named is WT H3.1 26-35 peptide/HLA-A*02:01 complex on T2 cells (human). The description is as above.
For assay [10], the target named is HLA-A*02:01 on T2 cells without peptide loading (human). Described as above.
Assay [11] concerns the target control peptide mixture P20/HLA-A*02:01 complexes on T2 cells (human). The assay is described as above.
Assay [12] has as its target WT H3.3 26-35 peptide/HLA-A*02:01 complex on T2 cells (human). The assay is described as above.
Assay [13] deals with mutant histone K27M-H3.1 26-35 peptide/HLA-A*02:01 complex on T2 cells (human). Put plainly: flow cytometry on T2 cells, anti-M13 + PE anti-mouse IgG, no phage (background control).
In assay [14] the target is mutant histone K27M-H3.3 26-35 peptide/HLA-A*02:01 complex on T2 cells (human). Described as above.
Assay [15] deals with WT H3.1 26-35 peptide/HLA-A*02:01 complex on T2 cells (human). The description is as above.
The target of assay [16] is HLA-A*02:01 on T2 cells without peptide loading (human). The description is as above.
Assay [17] deals with control peptide mixture P20/HLA-A*02:01 complexes on T2 cells (human). Described as above.
For assay [18], the target named is WT H3.3 26-35 peptide/HLA-A*02:01 complex on T2 cells (human). The description is as above.
Assay [19] concerns the target mutant histone K27M-H3.1 26-35 peptide/HLA-A*02:01 complex on T2 cells (human). Put plainly: flow cytometry, phage on T2 cells, anti-M13 + PE anti-mouse IgG.
For assay [20], the target named is mutant histone K27M-H3.3 26-35 peptide/HLA-A*02:01 complex on T2 cells (human). The description is as above.
The target of assay [21] is WT H3.1 26-35 peptide/HLA-A*02:01 complex on T2 cells (human). Described as above.
The target in assay [22] is HLA-A*02:01 on T2 cells without peptide loading (human). The description is as above.
Assay [23] deals with control peptide mixture P20/HLA-A*02:01 complexes on T2 cells (human). Described as above.
Assay [24] deals with WT H3.3 26-35 peptide/HLA-A*02:01 complex on T2 cells (human). The assay is described as above.

For BB7.2 (antibody), the Median MFI (PE-A) in assay [1] worked out at 9530 MFI; in [2] it was 9650 MFI; in [3], 8700 MFI; in [4], 3600 MFI; in assay [5], 11300 MFI; in [6], 8650 MFI.

For the substance “R-PE conjugated horse anti-mouse IgG (antibody)”, the Median MFI (PE-A) in assay [7] stood at 85 MFI; in assay [8] it was 83 MFI; in assay [9] it was 83 MFI; in [10], 82 MFI; in assay [11], 82 MFI; in assay [12] it was 83 MFI.

mouse anti-M13 mAb (antibody): the Median MFI (PE-A) in assay [13] stood at 85 MFI; in assay [14], 83 MFI; in [15], 86 MFI; in [16] it was 80 MFI; in assay [17] it was 82 MFI; in assay [18], 83 MFI.

For the substance negative control phage, the Median MFI (PE-A) is 130 MFI in assay [19]; 133 MFI in assay [20]; 131 MFI in [21]; 122 MFI in assay [22]; 124 MFI in assay [23]; 128 MFI in assay [24].
